In US20190322748A1 (Hoffmann-La Roche, published 2019):
Where two headings read alike, the source gives them in different places.

How the values were obtained:
[1] = target: T1, full-length human Tim3 on cells (CHO-K1 stably transfected with plasmid 15312_hTIM3-fl_pUC_Neo) (human, UniProt Q8TDQ0 22-301); assay: cell-based or functional assay
[2] = target: T1, full-length human Tim3 on cells (CHO-K1 …); assay: cell ELISA on CHO-K1 cells with full-length human Tim3
monomeric human Tim3-ECD = target: T2, monomeric human Tim3-ECD (human, UniProt Q8TDQ0 22-202); assay: SPR Biacore T200, Ab captured on anti-human Fab IgG, hu Tim3-ECD in solution, 25 C
T2 construct: SPR analyte; also called huTim3; hu Tim3-ECD

[3] = target: T3, Tim3-CLIP (on transiently transfected HEK293 cells) (human, CLIP-tag labelled with Clip-Red); assay: cell-based TR-FRET (Tag-lite) on HEK293 cells co-transfected with PD1-SNAP (Lumi4-Tb) and Tim3-CLIP (Clip-Red), 1 h at 4 C; signal needs both receptors bound at once by one antibody; mean +/- SD, n=3
T3 construct: The plasmid encodes residues 1-202 including the signal peptide; also called CLIP-tagged TIM3

[4] = target: T4, full-length human PD1 on cells (CHO-K1 stably transfected with plasmid 15311_hPD1-fl_pUC_Neo) (human, UniProt Q15116 25-288); assay: cell-based or functional assay
[5] = target: T5, PD1-SNAP (on transiently transfected HEK293 cells) (human, SNAP-tag labelled with SNAP-Lumi4-Tb); assay: cell-based TR-FRET (Tag-lite) on HEK293 cells co-transfected with PD1-SNAP (Lumi4-Tb) and Tim3-CLIP (Clip-Red), 1 h at 4 C; signal needs both receptors bound at once by one antibody; mean +/- SD, n=3
T5 construct: also called SNAP-tagged PD1

[6] = target: T3, Tim3-CLIP (on transiently transfected …); assay: as above; remark: listed apart in the source
[7] = target: T6, biotinylated PD1-ECD-AviHis (human, UniProt Q15116 25-170, biotinylated, site not stated); assay: ELISA on coated biotinylated PD1-ECD-AviHis
T6 construct: also called huPD1; hu PD1

[8] = target: T4, full-length human PD1 on cells (CHO-K1 …); assay: cell-based or functional assay; remark: listed apart in the source
human PD1-ECD = target: T7, human PD1-ECD (human, UniProt Q15116 25-170); assay: SPR Biacore T200, Ab captured on anti-human Fc IgG, hu PD1-ECD in solution, 25 C
T7 construct: SPR analyte; also called hu PD1-ECD

[9] = target: T8, biotinylated TIM3-ECD-AviHis (human, UniProt Q8TDQ0 22-202, biotinylated, site not stated); assay: ELISA on coated biotinylated TIM3-ECD-AviHis
T8 construct: also called huTIM3; Hu TIM3

Binder | IFN-gamma release in MLR at 1 µg/ml antibody, % of rec hu IL-2 (20 EU/ml) = 100% [1] | IFN-gamma release in MLR at 10 µg/ml antibody, % of rec hu IL-2 (20 EU/ml) = 100% [1] | IFN-gamma release in MLR at 40 µg/ml antibody, % of rec hu IL-2 (20 EU/ml) = 100% [1] | EC50 [2] | Kd (monomeric human Tim3-ECD) | further results
Tim3_0026 (antibody, V domains shown) VH: QIQLVQSGPELKKPGETVKISCKASGYTFTDYSMHWVKQAPGRGLKWMGYINTETYEPTFGADFKGRFAFSLDTSATTAYLQINSLKTEDTATFFCGGGGYPAYWGQGTVVIVSA VL: DVLMTQTPLSLPVSLGDQASISCRSSRTILHSSGNTYLEWYLQKPGQSPKLLIYKVSNRFSGVPDRFSGSGSGTDFTLNISRVEAEDLGVYYCFQDSHVPFTFGTGTKLEIK | 18% | 16% | 25% | 0.069 µg/mL | – | –
Tim3_0021 (antibody, V domains shown) VH: QVQLQQSGPQLVRPGASVQISCKASGYSFTSYLLHWLKQRPGQGLEWIGMIDPSDSETRLNQKFKDKATLTVDKSSSTAYMQLSSPTSEDSAVYYCARDGYYAWYYFDCWGQGTTLTVSS VL: DIVLTQSPATLSVTPGDRVSLSCRASQSIGNNLHWYQQKSHESPRLLIKYASHSISGIPSKFSGTGSGTDFTLSFNSVETEDFGMYFCQQSNSWPLTFGAGTKLELK | 101% | 108% | 112% | 0.073 µg/mL | – | –
1+1 PD1TIM3_0476 (based on humanized PD1-0103_0312 / Tim3-0438) (bispecific antibody, human IgG1, kappa, L234A L235A, 1+1 CrossMAb Vh-VL: HC1/LC1 form the crossed PD1 arm, HC2/LC2 the TIM3 arm; knobs into holes) heavy 1: not shown heavy 2: EVQLVESGGGLVQPGGSLRLSCAASGFNIKTTYMHWVRQAPGKGLEWVGRIDPADDNTKYAPKFQGKATISADTSKNTAYLQMNSLRAEDTAVYYCVRDFGYVAWFAYWGQGTLVTVSSASTKGPSVFPLAPSSKSTSGGTAALGCLVEDYFPEPVTVSWNSGALTSGVHTFPAVLQSSGLYSLSSVVTVPSSSLGTQTYICNVNHKPSNTKVDEKVEPKSCDKTHTCPPCPAPEAAGGPSVFLFPPKPKDTLMISRTPEVTCVVVDVSHEDPEVKFNWYVDGVEVHNAKTKPREEQYNSTYRVVSVLTVLHQDWLNGKEYKCKVSNKALGAPIEKTISKAKGQPREPQVCTLPPSRDELTKNQVSLSCAVKGFYPSDIAVEWESNGQPENNYKTTPPVLDSDGSFFLVSKLTVDKSRWQQGNVFSCSVMHEALHNHYTQKSLSLSPGK light 1: EVQLLESGGGLVQPGGSLRLSCAASGFSFSSYTMSWVRQAPGKGLEWVATISGGGRDIYYPDSVKGRFTISRDNSKNTLYLQMNSLRAEDTAVYYCVLLTGRVYFALDSWGQGTLVTVSSASVAAPSVFIFPPSDEQLKSGTASVVCLLNNFYPREAKVQWKVDNALQSGNSQESVTEQDSKDSTYSLSSTLTLSKADYEKHKVYACEVTHQGLSSPVTKSFNRGEC light 2: DIVMTQSPLSLPVTPGEPASISCRASQSVDNYVAWYLQKPGQSPQLLIYYASNRYIGVPDRFSGSGSGTDFTLKISRVEAEDVGVYYCQQHYSSPYTFGQGTKVEIKRTVAAPSVFIFPPSDRKLKSGTASVVCLLNNFYPREAKVQWKVDNALQSGNSQESVTEQDSKDSTYSLSSTLTLSKADYEKHKVYACEVTHQGLSSPVTKSFNRGEC | – | – | – | – | 332 nM | binding result [3]: binds
1+1 PD1TIM3_0477 (based on humanized PD1-0103_0312 / Tim3-0434) (bispecific antibody, human IgG1, kappa, L234A L235A, 1+1 CrossMAb Vh-VL: HC1/LC1 form the crossed PD1 arm, HC2/LC2 the TIM3 arm; knobs into holes; also called PD1TIM3_477) heavy 1: not shown heavy 2: QITLKESGPTLVKPTQTLTLTCTFSGFSLSTSGMSVGWIRQPPGKGLEWLAHIWLNDDVFFNPALKSRLTITKDTSKNQVVLTMTNMDPVDTATYYCVRANGYLYALDYWGQGTLVTVSSASTKGPSVFPLAPSSKSTSGGTAALGCLVEDYFPEPVTVSWNSGALTSGVHTFPAVLQSSGLYSLSSVVTVPSSSLGTQTYICNVNHKPSNTKVDEKVEPKSCDKTHTCPPCPAPEAAGGPSVFLFPPKPKDTLMISRTPEVTCVVVDVSHEDPEVKFNWYVDGVEVHNAKTKPREEQYNSTYRVVSVLTVLHQDWLNGKEYKCKVSNKALGAPIEKTISKAKGQPREPQVCTLPPSRDELTKNQVSLSCAVKGFYPSDIAVEWESNGQPENNYKTTPPVLDSDGSFFLVSKLTVDKSRWQQGNVFSCSVMHEALHNHYTQKSLSLSPGK light 1: EVQLLESGGGLVQPGGSLRLSCAASGFSFSSYTMSWVRQAPGKGLEWVATISGGGRDIYYPDSVKGRFTISRDNSKNTLYLQMNSLRAEDTAVYYCVLLTGRVYFALDSWGQGTLVTVSSASVAAPSVFIFPPSDEQLKSGTASVVCLLNNFYPREAKVQWKVDNALQSGNSQESVTEQDSKDSTYSLSSTLTLSKADYEKHKVYACEVTHQGLSSPVTKSFNRGEC light 2: DIQLTQSPSFLSASVGDRVTITCSASSSVSYTQWYQQKPGKAPKLWIYDAFKLAPGVPSRFSGSGSGTEFTLTISSLQPEDFATYFCHQWSSYPWTFGQGTKLEIKRTVAAPSVFIFPPSDRKLKSGTASVVCLLNNFYPREAKVQWKVDNALQSGNSQESVTEQDSKDSTYSLSSTLTLSKADYEKHKVYACEVTHQGLSSPVTKSFNRGEC | – | – | – | – | 12 nM | binding result [3]: binds
Tim3_0033 (antibody, V domains shown) VH: QGQMHQSGAELVKPGSSVKLSCKTSGFTFSSSFISWLKQKPGQSLEWIAWIYAATGSTSYNQKFTNKAQLTVDTSSSAAYMQFSSLTTEDSAIYYCARHAGYPHYYAMDYWGQGTSVTVSS VL: DIQMTQSPASLSASVGETVTITCRASENIFSNLAWYQQKQGKSPQLLVYSATNLGDGVPSRFSGSGSGTQFSLKINSLQPEDFGNYYCQHFYKIPFTFGTGTKLEIK | 0% | 30% | 35% | 3.71 µg/mL | – | –
1+1 PD1TIM3_0389 (based on chimeric PD1-0103 / Tim3-0028) (bispecific antibody, human IgG1, kappa, L234A L235A, 1+1 CrossMAb Vh-VL: HC1/LC1 form the crossed PD1 arm, HC2/LC2 the TIM3 arm; knobs into holes; also called PD1TIM3-0389 (0357); Bispec AB 0389 (1+1)) heavy 1: not shown heavy 2: EVQLQQSVAELVRPGASVKLSCTASGFNIKTTYMHWVKQRPEQGLEWIGRIDPADDNTKYAPKFQGKATITADTSSNTAYLQLSSLTSEDAAIYYCVRDFGYVAWFAYWGQGTLVTFSAASTKGPSVFPLAPSSKSTSGGTAALGCLVEDYFPEPVTVSWNSGALTSGVHTFPAVLQSSGLYSLSSVVTVPSSSLGTQTYICNVNHKPSNTKVDEKVEPKSCDKTHTCPPCPAPEAAGGPSVFLFPPKPKDTLMISRTPEVTCVVVDVSHEDPEVKFNWYVDGVEVHNAKTKPREEQYNSTYRVVSVLTVLHQDWLNGKEYKCKVSNKALGAPIEKTISKAKGQPREPQVCTLPPSRDELTKNQVSLSCAVKGFYPSDIAVEWESNGQPENNYKTTPPVLDSDGSFFLVSKLTVDKSRWQQGNVFSCSVMHEALHNRFTQKSLSLSPGK light 1: EVILVESGGGLVKPGGSLKLSCAASGFSFSSYTMSWVRQTPEKRLDWVATISGGGRDIYYPDSVKGRFTISRDNAKNTLYLEMSSLMSEDTALYYCVLLTGRVYFALDSWGQGTSVTVSSASVAAPSVFIFPPSDEQLKSGTASVVCLLNNFYPREAKVQWKVDNALQSGNSQESVTEQDSKDSTYSLSSTLTLSKADYEKHKVYACEVTHQGLSSPVTKSFNRGEC light 2: NIVMTPTPKFLPVSSGDRVTMTCRASQSVDNYVAWYQQKPGQSPKLLIYYASNRYIGVPDRFTGSGSGTDFTFTISSVQVEDLAVYFCQQHYSSPYTFGSGTKLEIKRTVAAPSVFIFPPSDRKLKSGTASVVCLLNNFYPREAKVQWKVDNALQSGNSQESVTEQDSKDSTYSLSSTLTLSKADYEKHKVYACEVTHQGLSSPVTKSFNRGEC | – | – | – | – | 245 nM | EC50 of IFN-gamma secretion in MLR, donors D1 + D3 [4]: 2 nM; EC50 of IFN-gamma secretion in MLR, donors D2 + D4 [4]: 1.9 nM; binding result [5]: binds; binding result [6]: binds; EC50 [7]: 0.13 nM; EC50 of IFN-gamma secretion in MLR, donors D2 + D6 [8]: 2.8 nM; Kd (human PD1-ECD): 1.3 nM
2+2 PD1TIM3_0359 (chimeric PD1-0103 / Tim3-0018) (bispecific antibody, human IgG1, kappa, L234A L235A, 2+2 CrossMAb: TIM3 IgG with a crossed PD1 Fab fused by (G4S)4 to the C-terminus of each heavy chain; also called PD1TIM3-0359 (2 + 2)) heavy: not shown light 1: QIVLTQSPAIMSASPGQKVTITCSASSSVNYTQWYQQKLGSSPKLWIYDAFKLAPGVPARFSGSGTGTSYSLTISSMEAEDAASYFCHQWSSYPWTFGGGTKLEIKRTVAAPSVFIFPPSDRKLKSGTASVVCLLNNFYPREAKVQWKVDNALQSGNSQESVTEQDSKDSTYSLSSTLTLSKADYEKHKVYACEVTHQGLSSPVTKSFNRGEC light 2: EVILVESGGGLVKPGGSLKLSCAASGFSFSSYTMSWVRQTPEKRLDWVATISGGGRDIYYPDSVKGRFTISRDNAKNTLYLEMSSLMSEDTALYYCVLLTGRVYFALDSWGQGTSVTVSSASVAAPSVFIFPPSDEQLKSGTASVVCLLNNFYPREAKVQWKVDNALQSGNSQESVTEQDSKDSTYSLSSTLTLSKADYEKHKVYACEVTHQGLSSPVTKSFNRGEC | – | – | – | – | 2.3 nM | binding result [5]: binds; binding result [6]: binds; EC50 [7]: 0.09 nM; EC50 [9]: 0.11 nM; Kd (human PD1-ECD): 1.8 nM
